# ± gives the standard error. Fewer inactive variants are shown than the library holds.
# B1: glmS ribozyme (parent)
# chain: AUAAAAGCGCCAGAACUACAGAAAUGUAGUUGACGAGGAGGAGGUUUAUCGAAUUUUCGGCGGAUGCCUCCAAA
# Columns and labels:
# Conditions in all cases: with glucosamine-6-phosphate
# [1] = variants of: B1; assay: self-cleavage kobs at 160 uM GlcN6P; higher = faster cleavage; RNA array
# Procedure, shortened: (§1)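 The measurements used barcoded ribozyme variants on sequenced MiSeq chips, transcribed in situ by E. coli RNA polymerase and tracked at 37 °C with a hybridised Cy3 probe. Glucosamine-6-phosphate, 40 μM to 10 mM in HEPES/KCl/Mg(OAc)2 buffer, was flowed in while tiles were imaged over ~14 h. Baseline-normalised signals, also normalised to non-cleaving reference variants, gave per-tile medians that were fit to one- or two-exponential decays for kobs. kcat and KM resulted from weighted Michaelis–Menten fits across concentrations.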
# [2] = variants of: B1; assay: self-cleavage kobs at 2500 uM GlcN6P; higher = faster cleavage; RNA array
# Procedure, shortened: as §1
# [3] = variants of: B1; assay: self-cleavage kobs at 640 uM GlcN6P; higher = faster cleavage; RNA array
# Procedure, shortened: as §1
# [4] = variants of: B1; assay: self-cleavage kobs at 10000 uM GlcN6P; higher = faster cleavage; RNA array
# Procedure, shortened: as §1
Variant,self-cleavage kobs at 160 uM GlcN6P [1] [s⁻¹],self-cleavage kobs at 2500 uM GlcN6P [2] [s⁻¹],self-cleavage kobs at 640 uM GlcN6P [3] [s⁻¹],self-cleavage kobs at 10000 uM GlcN6P [4] [s⁻¹]
C11U A42U C68A,< 1e-05,< 1e-05,–,–
A12G G32A G35U C68G,< 1e-05,–,–,–
A12G G44C,< 1e-05,< 1e-05,< 1e-05,–
A12G A36C G66C C68G,< 1e-05,–,–,–
C8U G40U A48U U65A,< 1e-05,< 1e-05,< 1e-05,–
C10G C11G G37C A53G,< 1e-05,< 1e-05,–,–
G13U A15U A36C A42G G59C C67G,< 1e-05,–,–,–
G13C U46C,< 1e-05,–,< 1e-05,–
A12G A15G G29A G32C G37U,< 1e-05,–,–,–
A14C A36U G38C A39G,< 1e-05,< 1e-05,–,–
G13A G44U C61G U65A,< 1e-05,< 1e-05,< 1e-05,–
G9A G37A A42U,< 1e-05,–,< 1e-05,–
C10U U49G U56A,< 1e-05,–,–,–
C11U A14C A39G U69A,< 1e-05,–,–,–
C10G U57C,< 1e-05,< 1e-05,< 1e-05,< 1e-05
G13A A53C C67G,< 1e-05,–,< 1e-05,< 1e-05
C11U U65C,< 1e-05,–,–,–
G13C C58U G59U,< 1e-05,–,–,–
C10A U30A G35U G43U,< 1e-05,–,–,–
C11U G43U A48G C71G,< 1e-05,< 1e-05,< 1e-05,–
C11A A42G G63A,< 1e-05,–,< 1e-05,–
A12U C50G C70G,0.000311 ± 7.3e-05,0.000205 ± 7.3e-05,0.000429 ± 8.2e-05,0.000273 ± 6e-05
C8U U56G,< 1e-05,< 1e-05,< 1e-05,–
G9U U31A C71U,< 1e-05,< 1e-05,< 1e-05,–
G13C C16G G38A,< 1e-05,–,–,–
G9U C10U C67G,< 1e-05,< 1e-05,< 1e-05,–

Variant,self-cleavage kobs at 160 uM GlcN6P [1] [s⁻¹],self-cleavage kobs at 2500 uM GlcN6P [2] [s⁻¹],self-cleavage kobs at 640 uM GlcN6P [3] [s⁻¹],self-cleavage kobs at 10000 uM GlcN6P [4] [s⁻¹]
C8U G40U,< 1e-05,< 1e-05,–,< 1e-05
C11A G38U G40U,< 1e-05,–,–,–
A12U G44A U65G C67U,0.000241 ± 6.5e-05,0.00188 ± 0.00037,0.000969 ± 0.00016,–
C11U A15G G44U G60U,< 1e-05,< 1e-05,< 1e-05,–
C11U G37C A39U U47G,< 1e-05,–,–,–
A12C G37A A52G,< 1e-05,5.63e-05 ± 1.7e-05,–,–
C11A A48C,< 1e-05,< 1e-05,< 1e-05,–
A12G G51U G66A,< 1e-05,< 1e-05,–,–
A12U G35U U55G,< 1e-05,–,–,–
C10A A39U U69G,< 1e-05,< 1e-05,< 1e-05,–
C10U U30C G43U G51U U55C U69C,< 1e-05,< 1e-05,< 1e-05,< 1e-05
G9U C16U U57G C68U,< 1e-05,–,< 1e-05,–
C11A C50G C61U,0.000476 ± 0.00011,–,0.000601 ± 0.00018,–
A14C G37A G43A C58U C68G,< 1e-05,–,–,–
G9U C61U,< 1e-05,–,< 1e-05,< 1e-05
C11G A12U G13U C58U C68G,7.71e-05 ± 2.9e-05,–,0.000363 ± 0.00016,–
G9C C11A C16U G35C U54C G62A,< 1e-05,–,< 1e-05,–
G13C U45G U56A G63A U65C,< 1e-05,< 1e-05,< 1e-05,–
C10U G51U,< 1e-05,< 1e-05,< 1e-05,< 1e-05
A12C U49A C50A,< 1e-05,< 1e-05,–,–
G9C U56A,< 1e-05,< 1e-05,< 1e-05,–
C10G G32U U54G C68A,5.61e-05 ± 2.2e-05,–,–,–
C10U A12U G40U A48G G60A,7.46e-05 ± 2.7e-05,–,–,–
C11U A14G C70U,0.00076 ± 0.00021,0.00193 ± 0.0006,0.000656 ± 0.00014,–
A12U C16A G41C,< 1e-05,–,–,–
C10G G66C,< 1e-05,–,< 1e-05,< 1e-05

Variant,self-cleavage kobs at 160 uM GlcN6P [1] [s⁻¹],self-cleavage kobs at 2500 uM GlcN6P [2] [s⁻¹],self-cleavage kobs at 640 uM GlcN6P [3] [s⁻¹],self-cleavage kobs at 10000 uM GlcN6P [4] [s⁻¹]
G13U G44U C68U,< 1e-05,< 1e-05,< 1e-05,–
G13U G51C U65G,< 1e-05,–,< 1e-05,–
C11A G38C A42C,< 1e-05,< 1e-05,–,–
G13C A14G G32A,0.000606 ± 0.00018,0.00874 ± 0.0043,0.00264 ± 0.00054,–
C10G G13U A15C,< 1e-05,–,< 1e-05,–
G9A A52G,< 1e-05,< 1e-05,< 1e-05,–
C10A A33C G40C C70U,< 1e-05,–,< 1e-05,–
G13C A33C G41U U56C,< 1e-05,< 1e-05,–,–
A12U U30A U45A A53U G62C,< 1e-05,< 1e-05,–,–
C10A C70A,6.28e-05 ± 1.3e-05,6.82e-05 ± 1.9e-05,0.000194 ± 3.9e-05,–
C11G A33U G44U U49A U65G,< 1e-05,< 1e-05,< 1e-05,–
C11A A39U C61U C70G,< 1e-05,< 1e-05,< 1e-05,–
G9C G38A C70U,< 1e-05,< 1e-05,< 1e-05,–
G13U G43U,< 1e-05,–,< 1e-05,< 1e-05
G9C G29U C50G C70G,0.000652 ± 0.00019,0.000253 ± 9.9e-05,0.000131 ± 4.2e-05,–
C11G A39C G40U,< 1e-05,< 1e-05,< 1e-05,–
C10U C16U G38C,< 1e-05,< 1e-05,< 1e-05,–
A12U A14U A15U,0.000236 ± 5.9e-05,0.00219 ± 0.00059,0.00051 ± 0.00013,–
G13C U31G G43U,< 1e-05,< 1e-05,–,–
G9U G13U G32A U47A G62A,< 1e-05,–,–,–
A12U G60U C70G,< 1e-05,–,–,–
C10U A39U G59A C70U,< 1e-05,< 1e-05,–,–
G9U A14U U47A,< 1e-05,< 1e-05,< 1e-05,–
G9A A48U,< 1e-05,< 1e-05,< 1e-05,–
G13U C50G G59A,0.0002 ± 7.6e-05,–,–,–
C11A G41U C58U,< 1e-05,–,< 1e-05,–

Variant,self-cleavage kobs at 160 uM GlcN6P [1] [s⁻¹],self-cleavage kobs at 2500 uM GlcN6P [2] [s⁻¹],self-cleavage kobs at 640 uM GlcN6P [3] [s⁻¹],self-cleavage kobs at 10000 uM GlcN6P [4] [s⁻¹]
C10A C16G,< 1e-05,–,–,< 1e-05
G9C G32C A33C A39G C61A,< 1e-05,< 1e-05,–,–
A12U C34U,< 1e-05,–,< 1e-05,< 1e-05
C10G G32A A33G C61A G63A,0.00144 ± 0.00069,–,–,–
C8U G41C G62U C68U,< 1e-05,< 1e-05,< 1e-05,–
G13C G44C C61A,< 1e-05,–,–,–
C10A U45C,< 1e-05,< 1e-05,< 1e-05,< 1e-05
G9U A12C G40A G41U G43U G63U,< 1e-05,–,–,–
G13A C34U,< 1e-05,< 1e-05,< 1e-05,–
C11U G13U U49G,< 1e-05,< 1e-05,< 1e-05,–
C10A G41U C68G,< 1e-05,< 1e-05,–,–
A12G G59C G63C C67A,< 1e-05,< 1e-05,< 1e-05,–
G9U C58U,< 1e-05,< 1e-05,< 1e-05,–
C11A G43C C61G,< 1e-05,< 1e-05,< 1e-05,–
C11A C34U G35C,< 1e-05,< 1e-05,–,–
C11U U47A,9.6e-05 ± 3.1e-05,0.0014 ± 0.00025,0.000187 ± 4.3e-05,0.0016 ± 0.00047
C10G A39U,< 1e-05,–,< 1e-05,–
C10G A53C,< 1e-05,< 1e-05,< 1e-05,< 1e-05
A12C A15U U55G C67U,4.96e-05 ± 2.1e-05,0.000447 ± 0.00013,0.0001 ± 2.8e-05,–
G9U A33C,< 1e-05,< 1e-05,< 1e-05,< 1e-05
G9U G62A,< 1e-05,< 1e-05,< 1e-05,< 1e-05
G13U A36G G43A G66C C70A,< 1e-05,< 1e-05,< 1e-05,–
C11U A15G C68U,4.79e-05 ± 2.4e-05,0.000318 ± 8.7e-05,9.88e-05 ± 2.1e-05,–
C10A C16A U47C U65C,< 1e-05,–,< 1e-05,–
C10U A36G U46C,< 1e-05,< 1e-05,–,< 1e-05
C11G G29A G37U,< 1e-05,–,< 1e-05,–

# Source: the supplement of paper PMC7125110
